Assays:
Sm (Smith antigen) = target: T1, Sm (Smith antigen); assay: AtheNA, Ab 50 ug/ml
T1 construct: Protein complex

Jo-1 = target: T2, Jo-1 (UniProt P12081 1-509); assay: AtheNA, Ab 50 ug/ml
T2 sequence: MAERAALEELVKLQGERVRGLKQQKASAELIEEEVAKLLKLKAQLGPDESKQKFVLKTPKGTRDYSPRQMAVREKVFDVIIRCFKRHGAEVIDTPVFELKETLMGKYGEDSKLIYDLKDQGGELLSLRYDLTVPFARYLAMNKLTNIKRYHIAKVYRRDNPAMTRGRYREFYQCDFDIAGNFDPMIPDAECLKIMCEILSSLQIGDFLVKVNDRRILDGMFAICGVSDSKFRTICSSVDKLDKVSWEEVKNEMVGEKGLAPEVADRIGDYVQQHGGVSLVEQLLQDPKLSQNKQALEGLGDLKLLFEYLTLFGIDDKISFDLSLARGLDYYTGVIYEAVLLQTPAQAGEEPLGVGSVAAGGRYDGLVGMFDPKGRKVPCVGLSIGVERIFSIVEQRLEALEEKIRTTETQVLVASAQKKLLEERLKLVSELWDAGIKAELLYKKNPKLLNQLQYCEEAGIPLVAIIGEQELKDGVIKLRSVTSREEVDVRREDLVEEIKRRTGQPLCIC

B1: CH557 (antibody, V domains shown)
VH: QVRLAQYGGGVKRLGATMTLSCVASGYTFNDYYIHWVRQAPGQGFELLGYIDPANGRPDYAGALRERLSFYRDKSMETLYMDLRSLRYDDTAMYYCVRNVGTAGSLLHYDHWGSGSPVIVSS
VL: EIVLTQSPATLSASPGERVTLTCRASRSVRNNVAWYQHKGGQSPRLLIYDASTRAAGVPARFSGSASGTEFTLAISNLESEDFTVYFCLQYNNWWTFGQGTRVDIK
notes: also called CH235.12; CH557_4A/293i
AtheNA signal (Sm (Smith antigen)): 8 relative luminescence units
AtheNA signal (Jo-1): 10 relative luminescence units

From patent US10450368 (DUKE UNIVERSITY, dated 2019)
